Source: the supplement of paper PMC12042874
± gives the uncertainty stated by the source.

Test: amyloid nucleation score (Sup35N fusion, yeast selection) (log enrichment); library NNK1; higher = more nucleation; inactive = no reads after selection
Procedure, shortened: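 DiMSum was used to calculate nucleation scores as log enrichment of output over input reads, centred on the mode score of non-aggregating sequences. Sequences with fewer than 100 input reads were not scored. Input and output came from Illumina sequencing of plasmid inserts in psi-negative yeast expressing peptides of 20 random codons fused to Sup35N, induced 24 hours with 100 μM copper sulfate and then grown 7 days at 30°C on medium lacking adenine and uracil.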

Row | Substance | amyloid nucleation score
1 | GRGANLCYRTRTVLLVNNLS | -0.199 ± 1.2
2 | FICECCISLMIARHRALKPA | -1 ± 0.67
3 | WGWHNYWDGSVVVWRSATAH | -0.414 ± 0.75
4 | SNLHNCLRGNGCWVIAIDVV | -0.251 ± 0.81
5 | FWDVTPWCHSRDCAVLFSRA | -1.37 ± 2.7
6 | QCSMGGRYVRQDS | -0.197 ± 0.6
7 | QWGNLFLWKTIAESLLRD | 1.47 ± 0.67
8 | CMGPYFSGMSEFRGTLSVHA | -0.491 ± 1.9
9 | FILSCISPPYVHCFYCLMFS | 0.854 ± 0.9
10 | EIARHSFF | inactive
11 | ANLCSCSTTMA | 0.236 ± 0.39
12 | GPKKTLMFPSFISDSCARKG | 0.535 ± 1.2
13 | HWLQY | 0.156 ± 0.43
14 | VTLKVFCIVEV | 0.314 ± 0.44
15 | MIIPD | 1.14 ± 0.34
16 | VILSYRLSEWGSSGDGDGRR | -0.562 ± 0.8
17 | VHTVYLLVDTR | 0.289 ± 1.2
18 | PWRAGYGRRKLLSEGDFRLS | 0.218 ± 0.62
19 | FDSGLETTNIKMRYMVVYLR | -0.608 ± 0.38
20 | SLMGALEIQRCSAFSSFLFR | 1.32 ± 0.41
21 | GFVTKDWLSVMRYIYQMLTS | -0.016 ± 0.4
22 | IDMTEMKIRWV | -0.208 ± 0.27
23 | SFIFLILMSAWFPFMRVTFG | 0.198 ± 0.64
24 | ESWAITWVGLYGCTLTVIRN | -0.148 ± 0.47
25 | VPWFLHELQTVLAKVNRGQR | -0.165 ± 0.33

Row | Substance | amyloid nucleation score
26 | RIFYFPSLRRKGDYNWRMVV | 0.27 ± 0.39
27 | MGGRGGTDCRASMYSSACMG | 1.74 ± 0.26
28 | RCINRGNLAHGGGWCKCKAR | 0.743 ± 0.54
29 | TSVLLQHGLWIGS | 0.685 ± 0.34
30 | NTGRISYFFVVSNPSPYSLR | 3.75 ± 0.058
31 | MLFDV | -0.077 ± 0.21
32 | ICNSLMEDDMGASEVMC | 0.734 ± 0.57
33 | VSVGVILCSVRNKVNRGMDD | inactive
34 | SVGSLRRFSDFIYWNVVLNM | -0.3 ± 0.58
35 | WNEADWHMCH | 1.34 ± 0.38
36 | FCPDICTWKNWSMWMQLEDL | 0.89 ± 0.54
37 | FLVYGSSGFTAVLGPQCEEG | -0.777 ± 1.4
38 | YKAERVKSVRTITPRVTLLW | -0.331 ± 0.61
39 | LTVIVFIMEATIDYYGGRCG | 0.959 ± 0.92
40 | RGQQPFVTLKRAVFKSINTD | -0.02 ± 0.41
41 | CRGNLIL | -0.578 ± 0.29
42 | EDAWGIIEEIIGWRGCGRLA | -0.84 ± 0.74
43 | FGKLYF | -0.52 ± 0.98
44 | SGRPLNNVWGVTWEIMRLSL | -0.839 ± 0.86
45 | HRYRGRNLLILCRNDDWCDF | 1.26 ± 0.47
46 | WELVCISFLVRDTCVVI | 0.263 ± 0.47
47 | KNFYDIKPLYALYSENLRLH | 0 ± 0.46
48 | WTVLGYFRALQASLRASAGM | 0.099 ± 0.71
49 | AFAVSSYWVRGIHRESYGSV | 0.591 ± 0.69
50 | FMIHMLTGSLLRVNDCNLGE | 0.987 ± 0.64

Row | Substance | amyloid nucleation score
51 | QSVKTQGVVCAVSIYFGGCS | 2.39 ± 0.23
52 | RNCLFVFGSLGYCSERAYKL | 6.7 ± 0.087
53 | TYRCR | 0.624 ± 0.53
54 | LYSDPKVCHN | 4.74 ± 0.065
55 | LLYTVY | -0.849 ± 1.2
56 | NKWLRCARGTVHWYAAIVGH | -0.942 ± 1.1
57 | SRVFRLVFKPSYGSLTRRCR | -0.904 ± 1.9
58 | SGMYSMYQDKT | -0.716 ± 0.5
59 | RFNISIPD | -1.01 ± 0.5
60 | NVTNQCMLW | 0.509 ± 0.33
61 | FGQNFEGIWPFVVKNRRLGQ | -1.12 ± 0.59
62 | SPRRLGAVMVSRRVGVGKGW | 0.402 ± 1.4
63 | RIGTTWMMCIPWVLNCNV | 6.945 ± 0.051
64 | YTYTQTFLV | -0.255 ± 0.47
65 | VWTDGGSYFRDLNRICGV | 3.74 ± 0.084
66 | RACDNMYHYRCLLRSTEHHQ | -0.185 ± 0.22
67 | LYPKSFYTKYYEWYTSGLIF | 0.236 ± 0.57
68 | VSCCSNLVY | 0.144 ± 0.26
69 | VCLVFVFDVSTVPNICCYAT | -0.189 ± 0.37
70 | LYTKFFEAMWQVWRFERTQR | 2.53 ± 0.21
71 | VAQLFHWADLYNTSYYVSCV | 3.38 ± 0.089
72 | MHFIRALIEFH | 1.88 ± 0.2
73 | CLSSSH | -0.322 ± 0.38
74 | LRRGMQHAFADSENFVGSHV | -0.168 ± 1.3
75 | IVHMIYWVM | 0.009 ± 0.61

Row | Substance | amyloid nucleation score
76 | SVAHMVDISFVVHPVMSTGN | -1.1 ± 0.82
77 | EFAYQV | -0.552 ± 1.5
78 | TSWRAWVGAVKRSAFFYTYY | 0.444 ± 1.4
79 | IWCFLI | 0.333 ± 0.55
80 | DHASIGMALYCFCYQVSFIL | 0.391 ± 0.42
81 | YAFLSEYFSAK | -0.054 ± 0.24
82 | LMQLHCLARSLYPFPWSGPT | 1.96 ± 0.42
83 | HQYVMFESLTYICLPLRDRL | 4.98 ± 0.1
84 | GIFKVEHFFKFMYDLIVSKL | -0.312 ± 0.27
85 | VTIAHNGNLSCRLYTYVQVR | 0.515 ± 0.57
86 | RLRLIFTCMR | 3.08 ± 0.11
87 | YSLTYVNSYLFGINDCKGPD | 8.164 ± 0.054
88 | GSHSRGY | -0.289 ± 0.36
89 | KSTSRPCHWIYWMWMVYPRY | 0.445 ± 0.81
90 | SAVVTRMGGGLKLRTWHEGN | 0.53 ± 0.55
91 | SLMIDRTRLGGN | 0.769 ± 0.17
92 | LIDLSSIKSWHVFSKALCGR | 0.006 ± 0.27
93 | GYGWFLCTIHVQKLVCWPTL | -0.114 ± 1.1
94 | SVYPLF | -0.268 ± 0.28
95 | YCLCCHLLKT | inactive
96 | ELIFFDDHFTDWYLCFNNFG | -1.29 ± 1.4
97 | MWELRFVLCLMIHEFRRWHE | -0.056 ± 0.64
98 | RHPSWLYDVFNIVLVITACW | -0.062 ± 0.97
99 | RGPLVFYLFTFWLCDRGNVL | 0.046 ± 0.58
100 | DYYVVLDMQQVFEGGCRFFR | 0.498 ± 0.46

Row | Substance | amyloid nucleation score
101 | IIEIRLNLGAVANLSTYGVM | 0.327 ± 0.39
102 | IWLLGSVHRLDSLVTDCKTS | 1.08 ± 0.63
103 | VSSGHLA | 0.032 ± 0.42
104 | RNFPWQGFYSTCMMPHF | 0.986 ± 0.6
105 | IWWFSTFVRRRRAAVKVHKA | inactive
106 | YASVVGYLPGCTNINAMKNR | inactive
107 | GSSRKSIVNIRILPSFALAE | -0.272 ± 0.52
108 | CKTLMLCTRICFDANQLASR | 1.71 ± 0.78
109 | DTYITGSHCHFYMNCWKA | 8.519 ± 0.079
110 | YVRFYLFNFVGLRQKFMI | 2.74 ± 0.17
111 | ARGYAGVRRLVGYR | 0.133 ± 0.56
112 | GALVCRCDGCYKSMGKAIMA | -0.243 ± 0.56
113 | SADKSSFKPFLESTASRVQI | -0.62 ± 1.1
114 | DRMPRFLVHENVYTVPERVW | inactive
115 | FFIKE | -0.067 ± 0.48
116 | SLVPVYI | 0.167 ± 0.35
117 | SSLNLMPQVGEGRHTGV | -0.648 ± 0.46
118 | YLFMNRGTVSWRSVYDRV | 0.104 ± 0.42
119 | SFRYVGCWYMARWFS | -0.497 ± 0.3
120 | IKDNITGKSSYGM | 0.418 ± 0.32
121 | CPVFQHDDKDWLGVFKWLRN | -1.32 ± 2.4
122 | TLDADYPCNEQDTVWL | 1.01 ± 1.1
123 | RSWPSCNCVAKANMCFARSL | -0.521 ± 0.39
124 | FDLFVKGECFVVRPLATSTY | -0.66 ± 0.38
125 | LWYVAPHVTRSNFEVQGGCG | -0.249 ± 0.34

Row | Substance | amyloid nucleation score
126 | SGVWNEFEGCWMVDDVIDPL | 0.268 ± 0.44
127 | GMWCLFRKCSVA | inactive
128 | LWYKIGFLIWSRTGTLYQGI | 0.273 ± 0.3
129 | YLRVNAHMLDYSF | -0.513 ± 1
130 | EVVEWSLTKNCLFHALFIWV | -0.142 ± 0.3
131 | WLFSPNVFVNFCFG | 6.913 ± 0.055
132 | VELGRLIPPEHETQDLRSGW | 0.258 ± 0.46
133 | EFEWNLFPICNTNMI | 1.66 ± 0.8
134 | ICYVNVL | -1.18 ± 1.7
135 | WSNADEFGPD | -0.256 ± 0.51
136 | ILKRSCEVVL | -0.243 ± 0.47
137 | RAWASVLGSFGIGVSCCGA | -0.85 ± 1.2
138 | MFSTLH | 0.178 ± 0.36
139 | YKNTCQLYPRVFTPWWYERM | 0.173 ± 0.67
140 | GNDLNRREVELGLNSIYKSY | 0.711 ± 0.73
141 | WADTIFCTSACNNVSGIRWG | -0.681 ± 0.58
142 | YCQQT | -1.28 ± 0.64
143 | TVYMGTLCHYYSGIRLGSIL | 0.458 ± 0.4
144 | NNMWSILTAAWDHVCSWRSS | 1.77 ± 0.5
145 | RRGGFG | -0.085 ± 0.69
146 | YLRRHQRNLPEQCCEAGINV | -1.37 ± 1.5
147 | GPFGLGSMSGSIKWRYHVCC | 0.528 ± 0.43
148 | ADGWFQFWRGKYFGGRFQFT | -0.166 ± 0.61
149 | LVTGSCNQWHGKW | -0.062 ± 0.39
150 | VIFSGVTRFHSRTCLRFVMI | -0.09 ± 0.79

Row | Substance | amyloid nucleation score
151 | FHYLMDYSRLNDIPLEDWGW | -0.411 ± 0.73
152 | ISVGCF | 0.201 ± 0.49
153 | VESVSWVCDRCTGLVLVWSG | inactive
154 | CITFMVRYGLRLHR | 0.089 ± 0.58
155 | YLLQSAIFGAGVHT | 0.672 ± 0.39
156 | VTNFNESLGKFSRNTLLRS | -0.713 ± 1.1
157 | LLKIGVA | -0.465 ± 1.5
158 | FVTMAVWGLYTCFKVHKGIV | -0.4 ± 0.78
159 | VRFWTLEFSPVRFSS | -1.11 ± 0.86
160 | LSMKNQDTCTFTCVLSHLSL | 1.9 ± 0.23
161 | CFFMEFYVPNSIIIYVRTPV | -1.89 ± 0.96
162 | RSHSNISKSPLFVVGGAQFM | 0.995 ± 0.56
163 | LDKSGSLVPKRKVTLKDKQR | -0.375 ± 0.41
164 | TASICSYR | -0.289 ± 0.49
165 | NHGLYTVFWGCCPWFSQNLF | 7.894 ± 0.073
166 | KVYYRVKMHYSLAGEARTDT | 0.621 ± 0.84
167 | RSYEDGALVVVGMRFGDRLR | 0.336 ± 0.87
168 | DLCIFIYFVISVRVLYRISN | inactive
169 | MAFMLWLDYW | 0.395 ± 0.32
170 | GIWCFACMSKFMYTRFSYN | -1.02 ± 0.67
171 | RDVECQLVSMHKGMWKLVEE | -0.041 ± 0.28
172 | VFLFNTAYESKNPMSKLKVC | -1.24 ± 0.5
173 | ANNNEYRFWTTSYW | 0.041 ± 1.4
